Measured values from the supplement of paper PMC10567573.

B1: RIPK4 (parent)
chain: VIDLFDEQGLSALHLAAQGRHAQT

Variants of: B1
Experiment: protein stability index of a GFP-peptide fusion (GPS, HEK-293T) (PSI 1-6); higher = more stable
Conditions: c terminus: a fixed tail appended
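Also: lentivirally expressed fusions sorted by FACS into six bins by GFP to DsRed ratio, PSI derived from sequencing read proportions per bin multiplied by bin number.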

Protein stability index, by site and new letter:
A17: H 2.72, N 3.13, E 3.54, Q 2.98, P 2.82, I 2.69, R 3.17, C 2.54, D 3.84, S 2.83, L 1.98, M 1.99, G 2.72, K 2.8, F 2.47
L15: V 3.07, S 4.01, I 2.81, E 3.47, G 3.74, K 3.39, D 3.39, F 2.41, T 3.51, C 2.74, W 2.26, H 3.3, P 3.37, A 3.31, M 3.09, Y 2.32, R 2.94, N 3.8, Q 3.3
L13: K 3.61, P 4.04, H 3.48, I 2.75, Y 2.53, A 3.38, R 3.31, T 3.56, C 2.22, V 3.06, N 3.3, W 2.82, F 2.87, G 3.87, E 4.17, M 3.66, Q 3.8, D 4.04, S 3.58
G9: N 3.41, M 1.93, S 2.68, Q 2.75, L 2.07, W 1.69, T 2.25, F 1.61, H 2.77, A 2.76, E 3.13, C 2.19, D 3.16, P 3.2, I 1.94, Y 1.6, R 2.4, V 1.66, K 2.56
A12: L 1.98, P 3.25, E 3.54, Q 3.29, S 2.96, V 1.99, H 2.6, M 2.46, F 2.05, W 2.12, Y 2.54, N 3.1, R 3.12, T 2.82, D 3.21, C 2.36, G 2.39, K 3.5, I 1.91
S11: Y 2.31, R 2.03, P 2.95, H 2.51, D 3.04, L 2.36, F 2.43, E 3.11, A 2.79, C 2.63, I 2.13, Q 2.95, W 2.52, V 2.12, M 2.18, N 2.95, G 2.94, T 2.63, K 2.65
H14: C 2.1, D 3.6, P 3.54, F 1.82, S 2.55, N 3.5, K 2.8, Y 2.09, L 2.33, T 2.95, M 1.89, E 4.04, I 1.88, A 2.49, V 2.28, Q 3.2, R 3.25, W 1.9, G 2.6
A16: P 3.42, M 2.4, H 2.83, I 2.35, V 2.01, C 2.59, Y 2.08, E 3.2, S 3.15, T 3.11, Q 2.77, D 3.55, G 3.27, F 1.99, N 3.46, R 2.42, W 1.51, L 1.85, K 2.98
L10: D 3.93, G 3.6, H 3.19, W 2.23, M 3.04, V 2.97, A 3.33, Q 3.25, P 3.63, I 2.67, N 3.83, S 3.76, E 4.48, F 2.83, K 3.31, T 3.08, Y 2.75, R 3.23, C 3.2
